Earlier results, collected in article PMC4512752.
Like-named read-outs stand apart in the source and are kept apart here. One block for each substance: values may come before it.

How the values were obtained:
Assay in all cases: MALLS
[1] = target: Arrestin-1 (Homo sapiens) (UniProt P10523)
[2] = target: Arrestin-1 (Mus musculus) (UniProt P20443)
Arrestin-2 (Bos taurus) [3] = target: Arrestin-2 (Bos taurus) (UniProt P17870)
Arrestin-2 (Bos taurus) [4] = target: Arrestin-2 (Bos taurus) (UniProt P17870); remark: listed apart in the source
Arrestin-3 (Bos taurus) [5] = target: Arrestin-3 (Bos taurus) (UniProt P32120)
Arrestin-3 (Bos taurus) [6] = target: Arrestin-3 (Bos taurus) (UniProt P32120); remark: listed apart in the source

Kd [1]: 2.95 µM
Substance: Arrestin-1 (from UniProt P10523)

Kd [2]: 57.5 µM
Substance: Arrestin-1 (from UniProt P20443)

Kd (Arrestin-2 (Bos taurus) [3]): 100 µM
Kd (Arrestin-2 (Bos taurus) [4]): 5.5 µM
Substance: Arrestin-2 (from UniProt P17870)

Kd (Arrestin-3 (Bos taurus) [5]): 100 µM
Kd (Arrestin-3 (Bos taurus) [6]): 7.8 µM
Substance: Arrestin-3 (from UniProt P32120)
